Data as given in US20220135687A1 (NANJING LEGEND BIOTECH, published 2022).
Like-named read-outs stand apart in the source and are kept apart here.

Columns and labels:
[1] = target: T1, His-tagged PD-L1 ECD protein (ACROBiosystems) (human, UniProt Q9NZQ7 19-238); assay: SPR, IgG captured by anti-human Fc, PD-L1-His analyte
T1 construct: Bought protein; also called PD-L1-His; PD-L1/His; not shown: His tag
Procedure: (§1) Briefly, capturing antibody (anti-mouse Fc antibody for the affinity measurement of mouse mAbs, or anti-human Fc antibody for the affinity measurement of chimeric and humanized mAbs, GE healthcare) was immobilized on a Biacore™ CM5 chip to approximately 7,000 RU using EDC-activated amine coupling chemistry. Antibody of interest (5 μg/ml) was captured for 60 seconds onto the sensorchip surface. His-tagged PD-L1 ECD protein (ACROBiosystems) was flowed over the sensorchip surface at a series concentrations. Flow rate was 30 μl/min in all experiments. Association and dissociation phases were 5 and 15 min, respectively. The chip was regenerated using Glycine/HCl pH 1.5. Captured antibody and antigen were removed between each cycle using 50 mM HCl in order to ensure a fresh binding surface for each concentration of antigen. The resulting sensorgrams were fit globally using a 1:1 binding model in order to calculate on- and off-rates (ka and kd, respectively), as well as affinities (KD).

[2] = target: T2, cynomolgus PD-L1 overexpressing stable cell line (cynomolgus, UniProt G7PSE7 19-290); assay: FACS, cynomolgus PD-L1 cell line
T2 construct: also called cynomolgus PD-L1 overexpressing cell line
T2 sequence (G7PSE7 entry or part of it limits assumed): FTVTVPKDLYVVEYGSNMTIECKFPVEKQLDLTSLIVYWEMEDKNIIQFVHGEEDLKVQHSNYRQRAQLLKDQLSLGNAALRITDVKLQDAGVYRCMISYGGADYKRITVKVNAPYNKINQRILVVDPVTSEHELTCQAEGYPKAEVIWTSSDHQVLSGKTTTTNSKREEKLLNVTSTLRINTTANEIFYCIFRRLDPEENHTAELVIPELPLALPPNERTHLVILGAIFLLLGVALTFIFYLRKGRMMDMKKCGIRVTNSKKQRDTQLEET

[3] = target: T3, human PD-L1 expressed on CHO-K1 cells (Genscript, Cat #M00543) (human, UniProt Q9NZQ7 19-290); assay: cell-based or functional assay
T3 sequence (Q9NZQ7 19-290, one chain of several): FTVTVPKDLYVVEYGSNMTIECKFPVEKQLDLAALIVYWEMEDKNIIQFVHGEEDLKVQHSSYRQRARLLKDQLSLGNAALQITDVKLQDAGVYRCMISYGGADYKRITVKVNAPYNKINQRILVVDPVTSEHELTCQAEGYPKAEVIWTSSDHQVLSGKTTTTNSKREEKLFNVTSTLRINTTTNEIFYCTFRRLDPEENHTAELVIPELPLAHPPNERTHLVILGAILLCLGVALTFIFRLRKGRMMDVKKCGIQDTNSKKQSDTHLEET

[4] = target: T1, His-tagged PD-L1 ECD protein …; assay: SPR, supernatant IgG captured, PD-L1-His analyte
[5] = target: T3, human PD-L1 expressed on CHO-K1 cells …; assay: FACS competition vs biotin-PD-1-Fc on CHO-K1/human PD-L1 cells
Procedure: A series of diluted mouse mAbs (concentration starting from 900 nM, 3 fold dilution, 50 μl per well) were added afterwards. The mixture was incubated at 4° C. for 30 minutes, washed twice with wash buffer, followed by the addition of PEcy5/streptavidin (1 μg/ml, 150 μl/well). The plates were again incubated at 4° C. for 30 minutes before the cells in each well were analyzed by FACSCalibur (BD Bioscience, San Jose, Calif.) and Flowjo software.

[6] = target: T3, human PD-L1 expressed on CHO-K1 cells …; assay: FACS, CHO-K1/human PD-L1 cells
Procedure: (§2) PD-L1 stable cell line binding activity assessment of 12 mouse mAbs was carried out using FACS. CHO-K1 cells expressing human PD-L1 (Genscript, Cat #M00543) were dissociated from adherent culture flasks and mixed with varying concentrations of antibodies. The antibody and cells were incubated for 30 minutes at room temperature, washed three times with FACS buffer (PBS containing 1% BSA). PE-labeled goat anti-mouse IgG (minimal x-reactivity) secondary antibody (BioLegend, Cat #405307) was added and incubated at room temperature for 15 minutes. Cells were washed again with FACS buffer and analyzed by FACSCalibur (BD Bioscience, San Jose, Calif.) and Flowjo software. Data were analyzed with Prism 6 (GraphPad Software, San Diego, Calif.) using non-linear regression, and EC₅₀ values were calculated (FIGS. 2A-2L and Table 3).
Human and cynomolgus PD-L1 stable cell line binding activity assessment of chimeric and humanized mAbs was carried out using FACS as described above (FIGS. 9A-9L and FIGS. 10A-10L and Tables 13 and 14).

[7] = target: cynomolgus PD-L1 Fc-fusion protein (cynomolgus, UniProt G7PSE7 19-238); assay: SPR, cyno PD-L1-Fc immobilised, antibody analyte
Sequence of cynomolgus PD-L1 Fc-fusion protein (G7PSE7 entry or part of it limits assumed): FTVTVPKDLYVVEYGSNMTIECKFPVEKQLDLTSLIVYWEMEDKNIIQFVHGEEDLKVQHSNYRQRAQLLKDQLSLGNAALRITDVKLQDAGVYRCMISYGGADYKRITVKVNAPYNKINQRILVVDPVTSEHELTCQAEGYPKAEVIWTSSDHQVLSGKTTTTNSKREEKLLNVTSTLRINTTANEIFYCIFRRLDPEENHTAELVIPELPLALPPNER

[8] = target: T3, human PD-L1 expressed on CHO-K1 cells …; assay: FACS, CHO-K1/human PD-L1 cells; remark: listed apart in the source
Procedure: as §2

[9] = target: T3, human PD-L1 expressed on CHO-K1 cells …; assay: cell-based or functional assay; remark: listed apart in the source
[10] = target: T1, His-tagged PD-L1 ECD protein …; assay: SPR, supernatant IgG captured, PD-L1-His analyte; remark: listed apart in the source
[11] = target: T1, His-tagged PD-L1 ECD protein …; assay: SPR, mAb captured via anti-Fc, PD-L1-His analyte
Procedure: as §1

[12] = target: T1, His-tagged PD-L1 ECD protein …; assay: SPR, supernatant IgG captured, PD-L1-His analyte; remark: listed apart in the source

T1 sequence (Q9NZQ7 19-238): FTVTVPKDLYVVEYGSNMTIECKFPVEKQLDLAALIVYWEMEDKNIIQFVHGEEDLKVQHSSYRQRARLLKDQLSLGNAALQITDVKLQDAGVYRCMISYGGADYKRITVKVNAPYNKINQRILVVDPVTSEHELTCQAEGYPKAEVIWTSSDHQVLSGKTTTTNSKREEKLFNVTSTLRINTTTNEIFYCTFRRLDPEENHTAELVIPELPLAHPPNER

Binder	Kd [1] [nM]	koff [1] [s⁻¹]	kon [1] [M⁻¹ s⁻¹]	EC50 [2] [nM]	Top (best-fit value) [2]	EC50, PD-L1 cell-based luciferase reporter assay [3] [nM]	IC50 [5] [nM]	EC50 [6] [nM]	Top (best-fit value) [6]	Kd [7] [nM]	koff [7] [s⁻¹]	kon [7] [M⁻¹ s⁻¹]	EC50 [8] [nM]	Top (best-fit value) [8]	EC50, PD-L1 cell-based luciferase reporter assay [9] [nM]	Kd [12] [nM]	koff [12] [s⁻¹]	kon [12] [M⁻¹ s⁻¹]	other results
53C1_VH3-VL1.M1 (antibody, human IgG1, kappa, N297A, V domains shown, Humanized, hIgG1 effector-less Fc, kappa; see recheck on K24R in the .M1 light chain) VH: EVQLVQSGAEVKKPGASVKLSCKASGYIFTGYGITWVRQAPGQGLEWIGEIFPRRVNTYYSEKFKGRATLTADTSTSTAYMELRSLRSDDTAVYFCARDYDPYFALDYWGQGTTVTVSS VL: DIQMTQSPSSLSASVGDRVTITCRASQDVSTAVDWYQQKPGKAPKLLIYSASYRYTGVPDRFSGSGSGTDFTFTISSLQPEDIATYYCQQHYSIPFTFGQGTKLEIKR	0.55	0.00016	290000	4.66	8310	2.26	0.482	2	6410	0.71	6.8e-05	95000	–	–	–	–	–	–	Kd [4]: 0.49 nM; koff [4]: 0.00015 s⁻¹; kon [4]: 300000 M⁻¹ s⁻¹
27D3D3G2 (antibody, V domains shown, Mouse mAb from hybridoma culture) VH: QVLLQQSGPELVKPGASVRISCKASGYTFTSYYMHWVKQRPGQGLEWIGWIYPGNVNTKYNEKFKGKATLTADKSSSTAYMQLSSLTSEDSAVYFCASYGNYGGWYFDVWGAGTTVTVSS VL: DIQMTQTTSSLSASLGDRVTISCRASQDIGNYLNWYQQKPDGTVKLLIYYTSRLHSGVPSRFSGSGSGTDYSLTISNLEQEDIATYFCQQGDTFPWTFGGGTKLEIK	–	–	–	–	–	–	1.28	–	–	–	–	–	4.19	1770	3.62	–	–	–	–
53C1_chimeric (antibody, human IgG1, kappa, N297A, V domains shown, Human IgG1 with effector-less Fc mutations, human kappa; also called chimeric 53C1F3D4) VH: QVQLQQSGNELARPGASVRLSCKASGYIFTGYGITWVRQRPGQGLEWIGEIFPRRVNTYYSEKFKGRATLTADISSSTAYMELRSLTSEDSAVYFCARDYDPYFALDYWGQGTSVTVSS VL: DIVMTQSHKFMSTSVGDRVSITCKASQDVSTAVDWYQQKPGQSPKLLIYSASYRYTGVPDRFTGSGSGTAFTFTISGEQAEDLAVYYCQQHYSIPFTFGGGTKLEIKR	0.78	0.00019	240000	2.88	8490	1.98	0.59	1.79	6230	1.1	9.5e-05	87000	–	–	–	–	–	–	Kd [4]: 0.72 nM; koff [4]: 0.00018 s⁻¹; kon [4]: 250000 M⁻¹ s⁻¹; Kd [10]: 0.75 nM; koff [10]: 0.00019 s⁻¹; kon [10]: 260000 M⁻¹ s⁻¹
29A8H8C7 (antibody, V domains shown, Mouse mAb from hybridoma culture; also called mouse 29A8H8C7) VH: DVQLQGSGPGLVKPSQSLSLTCTVTGYSITSDFAWDWIRQFPGNKLEWMGHIRFSGTTSYNPSLKSRISITRDTSKNQFFLQLNSVTSEDTATYYCARSTLITKGFFDYWGQGTTLTVSS VL: DIVMTQSHKFMSTSVGGRVSITCKASQDVSPAVAWYQQKPGQSPKLLIYWASTRHTGVPDRFTGSGSGTDFTLTISSVQTEDLALYYCQQHYSTPWTFGGGTKLEIK	–	–	–	–	–	–	1.41	–	–	–	–	–	3.06	2440	3.61	–	–	–	Kd [11]: 0.28 nM; koff [11]: 0.00017 s⁻¹; kon [11]: 620000 M⁻¹ s⁻¹
29A8_chimeric (antibody, human IgG1, kappa, N297A, V domains shown, Human IgG1 with effector-less Fc mutations, human kappa; also called chimeric 29A8H8C7) VH: DVQLQGSGPGLVKPSQSLSLTCTVTGYSITSDFAWDWIRQFPGNKLEWMGHIRFSGTTSYNPSLKSRISITRDTSKNQFFLQLNSVTSEDTATYYCARSTLITKGFFDYWGQGTTLTVSS VL: DIVMTQSHKFMSTSVGGRVSITCKASQDVSPAVAWYQQKPGQSPKLLIYWASTRHTGVPDRFTGSGSGTDFTLTISSVQTEDLALYYCQQHYSTPWTFGGGTKLEIKR	0.3	0.00019	640000	2.77	8670	1.34	0.3	1.08	6410	0.48	7.3e-05	150000	–	–	–	0.25	0.00015	580000	Kd [10]: 0.32 nM; koff [10]: 0.00017 s⁻¹; kon [10]: 530000 M⁻¹ s⁻¹
51F3D2G4 (antibody, V domains shown, Mouse mAb from hybridoma culture) VH: QVQLQQSGAELARPGASVRLSCKASGYIFTGYGISWVKQRTGQGLEWIGEIFPRTANTYFNEKFKGKATLTADKSSSTAYMELRSLTSEDSAVYFCARDYDPYYALDYWGQGTSVTVSS VL: DIVMTQSHKFMSTSVGDRVTITCKASQDVSTAVDWYQQKPGQSPKLLIYSASYRYTGVPDRFTGSGSGTAFTFTISSEQAEDLAVYYCQQHYSVPFTFGGGTKLEIK	–	–	–	–	–	–	1.23	–	–	–	–	–	2.13	1720	8.69	–	–	–	–
29A8_VH1-VL1.M1 (antibody, human IgG1, kappa, N297A, Humanized, hIgG1 effector-less Fc, kappa; see recheck on K24R in the .M1 light chain) heavy: not shown light: DIQMTQSPSSLSASVGDRVTITCRASQDVSPAVAWYQQKPGKAPKLLIYWASTRHTGVPSRFSGSGSGTDFTLTISSLQPEDFATYYCQQHYSTPWTFGQGTKVEIKRTVAAPSVFIFPPSDEQLKSGTASVVCLLNNFYPREAKVQWKVDNALQSGNSQESVTEQDSKDSTYSLSSTLTLSKADYEKHKVYACEVTHQGLSSPVTKSFNRGEC	1.4	0.0008	590000	3.53	7470	2.01	0.463	1.75	6400	4	0.00043	110000	–	–	–	1.5	0.00071	470000	–
29A8_VH5-VL1.M1 (antibody, human IgG1, kappa, N297A, V domains shown, Humanized, hIgG1 effector-less Fc, kappa; see recheck on K24R in the .M1 light chain) VH: EVQLQESGPGLVKPSETLSLTCTVSGYSITSDFAWDWIRQPPGKGLEWIGHIRFSGTTSYNPSLKSRVTISRDTSKNQFSLKLSSVTAADTAVYYCARSTLITKGFFDYWGQGTLVTVSS VL: DIQMTQSPSSLSASVGDRVTITCRASQDVSPAVAWYQQKPGKAPKLLIYWASTRHTGVPSRFSGSGSGTDFTLTISSLQPEDFATYYCQQHYSTPWTFGQGTKVEIKR	0.74	0.00046	620000	3.07	7950	1.81	0.545	1.31	5100	0.98	0.0002	200000	–	–	–	0.76	0.00042	550000	–
29A8_VH4-VL1.M1 (antibody, human IgG1, kappa, N297A, Humanized, hIgG1 effector-less Fc, kappa; see recheck on K24R in the .M1 light chain) heavy: not shown light: DIQMTQSPSSLSASVGDRVTITCRASQDVSPAVAWYQQKPGKAPKLLIYWASTRHTGVPSRFSGSGSGTDFTLTISSLQPEDFATYYCQQHYSTPWTFGQGTKVEIKRTVAAPSVFIFPPSDEQLKSGTASVVCLLNNFYPREAKVQWKVDNALQSGNSQESVTEQDSKDSTYSLSSTLTLSKADYEKHKVYACEVTHQGLSSPVTKSFNRGEC	1.1	0.00071	630000	1.49	7820	1.24	0.385	1.05	5180	3.3	0.00044	130000	–	–	–	1.1	0.00063	560000	–
